According to US20230272086A1 (CHIA TAI TIANQING PHARMACEUTICAL GROUP, published 2023):

T1: human ST2 (hST2, Interleukin-1 receptor-like 1 isoform A) on cells (human, UniProt Q01638 19-556)
T1 sequence: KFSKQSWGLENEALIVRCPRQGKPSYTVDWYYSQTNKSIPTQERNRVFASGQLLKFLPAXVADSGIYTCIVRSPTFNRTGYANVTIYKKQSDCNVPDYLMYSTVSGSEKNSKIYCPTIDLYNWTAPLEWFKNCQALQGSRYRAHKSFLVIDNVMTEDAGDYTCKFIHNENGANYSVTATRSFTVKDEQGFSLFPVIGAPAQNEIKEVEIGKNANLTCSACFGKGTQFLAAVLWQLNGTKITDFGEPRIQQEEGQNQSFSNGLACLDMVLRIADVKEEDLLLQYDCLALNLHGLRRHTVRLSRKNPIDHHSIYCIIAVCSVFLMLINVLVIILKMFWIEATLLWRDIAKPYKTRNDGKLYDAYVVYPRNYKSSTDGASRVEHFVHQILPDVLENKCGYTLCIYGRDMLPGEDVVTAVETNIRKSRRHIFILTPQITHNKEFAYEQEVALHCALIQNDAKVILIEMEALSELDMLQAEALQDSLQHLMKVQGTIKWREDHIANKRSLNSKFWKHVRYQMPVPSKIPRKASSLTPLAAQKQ

T2: recombinant protein containing hST2 extracellular domain with mouse antibody heavy chain Fc tag (hST2-ECD-mFc) (human)
T2 construct: Used for SPR and for ELISA of chimeric and humanized antibodies; also called human ST2 antigen
T2 chain: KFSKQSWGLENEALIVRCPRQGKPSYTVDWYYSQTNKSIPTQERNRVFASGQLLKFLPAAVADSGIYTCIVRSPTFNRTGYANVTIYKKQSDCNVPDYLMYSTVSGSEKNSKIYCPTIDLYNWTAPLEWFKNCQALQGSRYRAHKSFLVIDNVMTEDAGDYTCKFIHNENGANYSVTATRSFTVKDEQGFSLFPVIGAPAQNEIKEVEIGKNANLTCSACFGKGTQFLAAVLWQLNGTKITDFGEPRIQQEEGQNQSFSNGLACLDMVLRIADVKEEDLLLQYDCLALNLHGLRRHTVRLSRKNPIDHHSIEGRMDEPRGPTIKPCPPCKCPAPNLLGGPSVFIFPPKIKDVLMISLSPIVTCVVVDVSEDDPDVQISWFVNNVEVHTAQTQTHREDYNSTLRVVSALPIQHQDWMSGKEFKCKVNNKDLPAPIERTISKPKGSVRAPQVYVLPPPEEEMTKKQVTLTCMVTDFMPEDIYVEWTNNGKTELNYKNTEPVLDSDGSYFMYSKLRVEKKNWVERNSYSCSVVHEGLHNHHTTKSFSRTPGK


Key:
[1] = target: T1, human ST2 (hST2, Interleukin-1 …); assay: cell-based or functional assay
[2] = target: recombinant protein containing hST2 extracellular domain with human antibody heavy chain Fc tag (hST2-ECD-hFc) (human); assay: competition ELISA, coated hST2-ECD-hFc, antibody then biotin-labeled hIL33 Avitag (competitor)
Experimental: Whether the anti-ST2 antibodies were able to block the binding of hIL33 to hST2 was determined based on ELISA. A high-adsorption 96-well plate was coated with 2 µg/mL hST2-ECD-hFc at 100 µL/well and incubated overnight at 4° C. After the antigen not adsorbed was well washed off, the non-specific binding sites were blocked with a blocking buffer (PBST containing 1% bovine serum albumin). After the plate was washed three times with a washing buffer (PBST, PBS containing 0.05% (v/v) Tween 20), the anti-ST2 antibodies (serially diluted 2-fold from an initial concentration of 66.67 nM to 8 concentrations) were added at 100 µL/well, and the plate was incubated at 37° C. for 1 h After the plate was washed 3 times with the washing buffer, 100 µL of biotin-labeled hIL33 Avitag (with a concentration of 0.1 µg/mL) was added to each well, and the plate was incubated at 37° C. for 1 h. After the plate was washed 3 times with the washing buffer, a 1:1000 diluted secondary antibody Avidin HRP (Jackson immunoresearch, 016-030-084) was added at 100 µL/well, and the plate was incubated at room temperature for 1 h After the plate was washed with the washing buffer, the substrate TMB solution (Thermo, 00-4201-56) was added at 100 µL/well, and the plate was incubated at room temperature for 3 min. 50 µL of a stop solution (2 N H₂SO₄) was added to terminate the reactions. Colorimetric signals were generated and read at 450 nm using a plate reader (PE, Envision). The data were analyzed using GraphPad Prism5, and the IC₅₀ values were calculated.
The humanized antibodies hz31C81-1.1 (the amino acid sequence of the heavy chain set forth in SEQ ID NO: 75 and the amino acid sequence of the light chain set forth in SEQ ID NO: 81) and hz31C8-1.2 (the amino acid sequence of the heavy chain set forth in SEQ ID NO: 77 and the amino acid sequence of the light chain set forth in SEQ ID NO: 81) were subjected to affinity, binding, blocking and cell function analyses using the methods described in Example 4, Example 5, Example 6, Example 7, Example 8, Example 9 and Example 10.

[3] = target: T2, recombinant protein containing hST2 …; assay: SPR (Biacore T200), hST2-ECD-mFc captured by anti-mouse IgG on CM5, antibody as analyte, 1:1 model
Experimental: The reaction signals were detected in real time using a Biacore instrument (Cytiva, BiacoreT200), and then an association-dissociation curve was obtained. After the completion of dissociation in each cycle, the biochip was regenerated with a regeneration solution for the next capture; the procedure was repeated until the affinity of the different antibodies for ST2 was determined. The acquired data were finally analyzed using the GE BIAevaluation software with a 1:1 (Langmuir) binding model to determine the association rate constants ka (kon) and the dissociation rate constants kd (koff), and the dissociation constants KD were given by KD = kd/ka. The determined affinity of the anti-ST2 antibody for human ST2 antigen (hST2-ECD-mFc), cynomolgus monkey ST2 antigen (Cyno-ST2-his, Sino biological, 90915-C08H) and the determined affinity of the anti-ST2 chimeric antibodies for ST2 were shown in Table 5.
The humanized antibodies hz31C81-1.1 (the amino acid sequence of the heavy chain set forth in SEQ ID NO: 75 and the amino acid sequence of the light chain set forth in SEQ ID NO: 81) and hz31C8-1.2 (the amino acid sequence of the heavy chain set forth in SEQ ID NO: 77 and the amino acid sequence of the light chain set forth in SEQ ID NO: 81) were subjected to affinity, binding, blocking and cell function analyses using the methods described in Example 4, Example 5, Example 6, Example 7, Example 8, Example 9 and Example 10. In the present disclosure, “hz” and “xi” denote humanized antibodies and chimeric antibodies, respectively; for example, “hz31C81-1.1” and “hz31C81-1.2” represent humanized 31C81-1.1 and 31C81-1.2 antibodies, and “xi31C8” represents a chimeric 31C8 antibody.

Row | IC50, blocking of the IL33/ST2 signaling (NFκB luciferase reporter, HEK293T-hST2-NFκB-Luciferase cells, 50 pM hIL33 protein SEQ ID NO: 8) [1] | IC50 [2] | Kd [3] | Binder
1 | 2.53 nM | 1.93 nM | 0.129 nM | Chimeric 31C8 (antibody, human IgG2, kappa, V domains shown, also called xi31C8) VH: QVQLQQSGPELVRPGASVTLSCKASGYIFIDSEMHWVKQTPVHGLEWIGAIDPETGDTVYNQKFKGKATLTADKSSSTASMELSSLTSEDSAVYYCTGSTTDYYFAYWGQGTTLTVSS VL: DIVMTQAAFSNPVTLGTSASISCRSSKSLLHSNGIIYLYWYLQKPGQSPQLLIYQMSNLASGVPDRFSSSGSGTDFTLRISRVEAEDVGVYYCAQNLELPFTFGSGTKLEIKR
2 | 0.673 nM |  |  | Chimeric 3C6 (antibody, human IgG2, kappa, V domains shown, also called xi3C6) VH: QVQLQQSGAEVVRPGASVTLSCKASDYTITDYEMHWVKQTPVHGLEWIGAIDPETGDTAYSQNFKGKATLTADESSSTAYMELSSLTSEDSAVYYCSRSATDYYFASWGQGTTLTVSS VL: DIVMTQAAISNPVTLGTSASMSCRSSKSLLHSNGITYLYWYLQKPGHSPQLLIYQMSNLASGVPDRFSSSGSGTDFTLKISRVEAEDVGVYYCAQNLELPFTFGSGTKLEIKR
3 | 7.57 nM |  |  | Chimeric 26A1 (antibody, human IgG2, kappa, V domains shown, also called xi26A1) VH: QVQLQQSGAELVRPGASVTLSCKASDYIFTDSEIHWVKQTLVHGLEWIGAIDPETGDTAYNQKFKGKATLTADKSSSTAYMELSSLTSEGSAVYYCSGSTTDCYFAYWGQGTTLTVSS VL: DIVMTQAAFSNPVTLGTSASISCRSSKSLLHSNGIIYLYWYLQKPGQSPQLLIYQMSNLASGVPDRFSSSGSGTDFTLRISRVEAEDVGVYYCAQNLELPFTFGSGTKLEIKR
4 | 11.9 nM | 2.15 nM | 0.128 nM | RG6149 (antibody Ab2 in CN104334582, prepared in-house) (antibody, human IgG2, kappa, V domains shown, Control anti-ST2 antibody) VH: EVQLVQSGAEVKKPGESLKISCKGSGYSFTNYWIGWVRQMPGKGLEWMGIIYPGNSDTRFSPSFQGQVTISADKSITTAYLQWSSLKASDTAMYYCARHGTSSDYYGLDVWGQGTTVTVSS VL: not shown
5 |  | 1.89 nM | 0.0836 nM | Humanized 31C8-1.1 (antibody, human IgG2, kappa, V domains shown, also called hz31C8-1.1; hz31C81-1.1) VH: EVQLVQSGAEVKKPGATVKISCKASGYIFIDSEMHWVQQAPGKGLEWMGAIDPETGDTVYAEKFQGRVTITADKSSSTAYMELSSLRSEDTAVYYCTGSTTDYYFAYWGQGTLVTVSS VL: DIQMTQSPSSLSASVGDRVTITCRSSKSLLHSNGIIYLYWYQQKPGKAPKLLIYQLSNLASGVPSRFSSSGSGTDFTLTISSLQPEDFATYYCAQNLELPFTFGQGTKVEIKR
6 |  | 2.24 nM | 0.145 nM | Humanized 31C8-1.2 (antibody, human IgG2, kappa, V domains shown, also called hz31C8-1.2; hz31C81-1.2) VH: QVQLVQSGAKVKKPGATVKISCKASGYIFIDSEMHWVQQAPGKGLEWMGAIDPETGDTVYAKKFKGRVTITADKSSSTAYMELSSLRSEDTAVYYCTGSTTDYYFAYWGQGTLVTVSS VL: DIQMTQSPSSLSASVGDRVTITCRSSKSLLHSNGIIYLYWYQQKPGKAPKLLIYQLSNLASGVPSRFSSSGSGTDFTLTISSLQPEDFATYYCAQNLELPFTFGQGTKVEIKR
7 | 0.12 nM |  |  | Chimeric 7D1 (antibody, human IgG2, kappa, V domains shown, also called xi7D1) VH: QVQLQQSGAELVRPGASVTLSCKASGYTFTDYEMHWVKQTPVHGLDWIGTIDPETGDTAYNQKFKGRATLTADKSSSTAYMELSSLTSEDSAVYYCTRYSYTNSPYGMDYWGQGTSVTVSS VL: DVVMTQTPKFLLVSAGDRVTITCKASQSVSNDVAWYQQKPGQSPKLLIYYASNRYTGVPDRFTGSGYGTDFTFTINTVQAEDLAVYFCQQDYSSPYTFGGGTKLEIKR
8 |  | 2.53 nM | 0.0958 nM | GSK3772847 (antibody STLM208 in CN104411333, prepared in-house) (antibody, human IgG2, kappa, V domains shown, Control anti-ST2 antibody) VH: EVQLLESGGGLVQPGGSLRLSCAASGFTFSIYDMIWVRQAPGKGLEWVSSIRGEGGGTYYADSVKGRFTISRDNSKNTLYLQMNSLRAEDTAVYYCARDPWSTEGSFFVLDYWGQGTLVTVSS VL: EIVLTQSPATLSLSPGERATLSCRASQSVDDDLAWYQQKPGQAPRLLIYDASNRATGIPARFSGSGSGTDFTLTISSLEPEDFAVYYCQQYITAPLTFGQGTKVEIKR
